Target: ADP/ATP carrier (S. cerevisiae (endogenous in strain GA74)) (UniProt P18239)
Assay: native gel or EMSA

stoichiometry N: 2
Substance: ADP/ATP carrier (from UniProt P18239 1-318) (natural protein)

Reference: publication PMC2064651
